The assay concerns the target mannose receptor (MR) (human (endogenous in primary monocyte-derived macrophages)) (UniProt P22897).

“HIV-1 89.6 Env (from UniProt Q73372) (natural protein)”: the infection of primary human MDM by wild-type HIV-1 89.6 (intracellular Gag stain) with increasing concentrations of soluble mannan, normalized to 0 mg/mL mannan stood at 16 fold.

The values above are taken from PMC7051176.
